According to article doi:10.1101/2021.10.29.466147 (bioRxiv, 2021):

T1: Smc4 V721C, R1417C (SMC-kleisin ring circularization in vitro) (S. cerevisiae, UniProt Q12267 1-1418, V721C | R1417C)
T1 sequence: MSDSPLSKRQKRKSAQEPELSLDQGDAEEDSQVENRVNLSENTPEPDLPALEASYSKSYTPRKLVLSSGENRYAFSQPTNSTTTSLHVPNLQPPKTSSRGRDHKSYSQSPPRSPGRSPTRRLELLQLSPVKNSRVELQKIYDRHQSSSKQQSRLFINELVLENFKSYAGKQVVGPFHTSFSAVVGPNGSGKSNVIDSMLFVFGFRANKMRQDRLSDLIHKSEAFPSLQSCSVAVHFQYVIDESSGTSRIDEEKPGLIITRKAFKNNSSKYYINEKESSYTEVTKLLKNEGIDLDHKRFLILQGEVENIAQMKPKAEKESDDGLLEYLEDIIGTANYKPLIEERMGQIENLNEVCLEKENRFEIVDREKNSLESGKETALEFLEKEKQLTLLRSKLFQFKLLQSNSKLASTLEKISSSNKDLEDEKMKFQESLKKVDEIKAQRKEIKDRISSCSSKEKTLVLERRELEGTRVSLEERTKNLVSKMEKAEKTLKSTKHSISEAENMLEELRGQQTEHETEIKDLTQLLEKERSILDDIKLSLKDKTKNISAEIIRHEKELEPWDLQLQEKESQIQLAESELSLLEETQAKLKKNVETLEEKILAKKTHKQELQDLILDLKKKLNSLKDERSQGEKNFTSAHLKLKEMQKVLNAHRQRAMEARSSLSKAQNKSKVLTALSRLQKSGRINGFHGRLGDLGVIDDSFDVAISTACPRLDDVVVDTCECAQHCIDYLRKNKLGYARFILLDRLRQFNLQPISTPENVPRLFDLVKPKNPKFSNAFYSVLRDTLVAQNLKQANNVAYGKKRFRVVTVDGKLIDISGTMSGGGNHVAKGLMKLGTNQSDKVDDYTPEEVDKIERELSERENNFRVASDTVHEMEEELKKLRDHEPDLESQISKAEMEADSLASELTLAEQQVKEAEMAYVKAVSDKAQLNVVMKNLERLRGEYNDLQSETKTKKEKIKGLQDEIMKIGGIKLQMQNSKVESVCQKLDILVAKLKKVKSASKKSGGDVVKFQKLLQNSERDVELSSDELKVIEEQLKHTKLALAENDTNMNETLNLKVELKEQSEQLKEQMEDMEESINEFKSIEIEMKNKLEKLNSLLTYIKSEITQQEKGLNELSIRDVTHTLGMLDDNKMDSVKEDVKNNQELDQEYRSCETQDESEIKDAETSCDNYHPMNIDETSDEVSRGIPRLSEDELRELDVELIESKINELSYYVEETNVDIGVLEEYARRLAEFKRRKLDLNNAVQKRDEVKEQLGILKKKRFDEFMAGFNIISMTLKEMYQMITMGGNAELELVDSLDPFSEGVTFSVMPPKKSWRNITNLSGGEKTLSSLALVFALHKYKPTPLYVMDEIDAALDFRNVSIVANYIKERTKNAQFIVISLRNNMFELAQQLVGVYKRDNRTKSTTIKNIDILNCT

T2: Ycs4, HEAT-repeat subunit I of S. cerevisiae condensin (S. cerevisiae, UniProt Q06156 1-1176)
T2 sequence: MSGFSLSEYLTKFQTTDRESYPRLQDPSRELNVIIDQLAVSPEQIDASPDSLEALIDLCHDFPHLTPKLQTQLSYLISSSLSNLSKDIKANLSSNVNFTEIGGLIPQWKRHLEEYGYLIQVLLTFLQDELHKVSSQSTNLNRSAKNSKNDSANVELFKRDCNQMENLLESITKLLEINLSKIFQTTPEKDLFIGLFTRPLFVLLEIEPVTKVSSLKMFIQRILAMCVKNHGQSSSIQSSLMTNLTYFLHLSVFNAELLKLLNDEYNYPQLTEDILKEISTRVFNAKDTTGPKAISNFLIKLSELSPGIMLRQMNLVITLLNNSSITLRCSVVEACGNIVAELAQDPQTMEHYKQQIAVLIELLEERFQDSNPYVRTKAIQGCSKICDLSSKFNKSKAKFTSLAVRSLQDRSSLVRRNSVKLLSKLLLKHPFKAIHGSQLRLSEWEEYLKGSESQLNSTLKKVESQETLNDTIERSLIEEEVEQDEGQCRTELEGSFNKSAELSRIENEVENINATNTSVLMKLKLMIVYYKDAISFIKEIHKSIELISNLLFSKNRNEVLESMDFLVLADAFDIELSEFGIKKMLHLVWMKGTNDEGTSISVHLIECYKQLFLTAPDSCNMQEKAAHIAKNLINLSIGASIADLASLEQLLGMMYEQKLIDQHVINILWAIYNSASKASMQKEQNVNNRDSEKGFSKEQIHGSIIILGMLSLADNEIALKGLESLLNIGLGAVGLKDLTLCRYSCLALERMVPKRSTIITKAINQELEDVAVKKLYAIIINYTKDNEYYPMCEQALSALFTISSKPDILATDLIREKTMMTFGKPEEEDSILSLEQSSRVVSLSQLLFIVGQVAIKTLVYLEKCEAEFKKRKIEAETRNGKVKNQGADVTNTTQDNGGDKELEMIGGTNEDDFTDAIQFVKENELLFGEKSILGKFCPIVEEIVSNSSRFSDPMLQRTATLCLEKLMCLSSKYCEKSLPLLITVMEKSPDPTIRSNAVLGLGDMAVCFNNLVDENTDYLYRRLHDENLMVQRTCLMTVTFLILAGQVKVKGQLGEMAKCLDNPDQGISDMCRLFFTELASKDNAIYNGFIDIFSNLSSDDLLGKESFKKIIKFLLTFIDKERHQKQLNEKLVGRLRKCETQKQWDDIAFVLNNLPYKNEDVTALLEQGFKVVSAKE


Legend:
[1] = molecular target: T1, Smc4 V721C, R1417C (SMC-kleisin ring …); assay: cross-linking
[2] = molecular target: T2, Ycs4, HEAT-repeat subunit I of S. …; assay: cryo-EM structure

| binding result [1] | binding result [2] | Binder |
| --- | --- | --- |
| binds |  | Brn1 K709C, the Brn1 part of the Smc2–TEV–Brn1 fusion (SMC-kleisin ring circularization in vitro) (natural protein, S. cerevisiae) MTTQLRYENNDDDERVEYNLFTNRSTMMANFEEWIKMATDNKINSRNSWNFALIDYFYDLDVLKDGENNINFQKASATLDGCIKIYSSRVDSVTTETGKLLSGLAQRKTNGASNGDDSNGGNGEGLGGDSDEANIEIDPLTGMPISNDPDVNNTRRRVYNRVLETTLVEFETIKMKELDQELIIDPLFKKALVDFDEGGAKSLLLNTLNIDNTARVIFDASIKDTQNVGQGKLQRKEEELIERDSLVDDENEPSQSLISTRNDSTVNDSVISAPSMEDEILSLGMDFIKFDQIAVCEISGSIEQLRNVVEDINQAKDFIENVNNRFDNFLTEEELQAAVPDNAEDDSDGFDMGMQQELCYPDENHDNTSHDEQDDDNVNSTTGSIFEKDLMAYFDENLNRNWRGREHWKVRNFKKANLVNKESDLLEETRTTIGDTTDKNTTDDKSMDTKKKHKQKKVLEIDFFKTDDSFEDKVFASKGRTKIDMPIKNRKNDTHYLLPDDFHFSTDRITRLFIKPGQKMSLFSHRKHTRGDVSSGLFEKSTVSANHSNNDIPTIADEHFWADNYERKEQEEKEKEQSKEVGDVVGGALDNPFEDDMDGVDFNQAFEGTDDNEEASVKLDLQDDEDHKFPIRENKVTYSRVSKKVDVRRLKKNVWRSINNLIQEHDSRKNREQSSNDSETHTEDESTKELKFSDIIQGISKMYSDDTLCDISTSFCFICLLHLANEHGLQITHTENYNDLIVNYEDLATTQAAS |
| binds |  | Smc2 K639C, the Smc2 part of the Smc2–TEV–Brn1 fusion (SMC-kleisin ring circularization in vitro) (natural protein, S. cerevisiae) MKVEELIIDGFKSYATRTVITDWDPQFNAITGLNGSGKSNILDAICFVLGIASMSTVRASSLQDLIYKRGQAGVTKASVTIVFDNTDKSNSPIGFTNSPQISVTRQVVLGGTSKYLINGHRAPQQSVLQLFQSVQLNINNPNFLIMQGKITKVLNMKPSEILSLIEEAAGTKMFEDRREKAERTMSKKETKLQENRTLLTEEIEPKLEKLRNEKRMFLEFQSTQTDLEKTERIVVSYEYYNIKHKHTSIRETLENGETRMKMLNEFVKKTSEEIDSLNEDVEEIKLQKEKELHKEGTISKLENKENGLLNEISRLKTSLSIKVENLNDTTEKSKALESEIASSSAKLIEKKSAYANTEKDYKMVQEQLSKQRDLYKRKEELVSTLTTGISSTGAADGGYNAQLAKAKTELNEVSLAIKKSSMKMELLKKELLTIEPKLKEATKDNELNVKHVKQCQETCDKLRARLVEYGFDPSRIKDLKQREDKLKSHYYQTCKNSEYLKRRVTNLEFNYTKPYPNFEASFVHGVVGQLFQIDNDNIRYATALQTCAGGRLFNVVVQDSQTATQLLERGRLRKRVTIIPLDKIYTRPISSQVLDLAKKIAPGKVELAINLIRFDESITKAMEFIFGNSLICEDPETACKITFHPKIRARSITLQGDVYDPEGTLSGGSRNTSESLLVDIQKYNQIQKQIETIQADLNHVTEELQTQYATSQKTKTIQSDLNLSLHKLDLAKRNLDANPSSQIIARNEEILRDIGECENEIKTKQMSLKKCQEEVSTIEKDMKEYDSDKGSKLNELKKELKLLAKELEEQESESERKYDLFQNLELETEQLSSELDSNKTLLHNHLKSIESLKLENSDLEGKIRGVEDDLVTVQTELNEEKKRLMDIDDELNELETLIKKKQDEKKSSELELQKLVHDLNKYKSNTNNMEKIIEDLRQKHEFLEDFDLVRNIVKQNEGIDLDTYRERSKQLNEKFQELRKKVNPNIMNMIENVEKKEAALKTMIKTIEKDKMKIQETISKLNEYKRETLVKTWEKVTLDFGNIFADLLPNSFAKLVPCEGKDVTQGLEVKVKLGNIWKESLIELSGGQRSLIALSLIMALLQFRPAPMYILDEVDAALDLSHTQNIGHLIKTRFKGSQFIVVSLKEGMFANANRVFRTRFQDGTSVVSIM |
|  | binds | Smc2 E1113Q (Walker B mutant, EQ) of the S. cerevisiae condensin holo complex (natural protein) MKVEELIIDGFKSYATRTVITDWDPQFNAITGLNGSGKSNILDAICFVLGIASMSTVRASSLQDLIYKRGQAGVTKASVTIVFDNTDKSNSPIGFTNSPQISVTRQVVLGGTSKYLINGHRAPQQSVLQLFQSVQLNINNPNFLIMQGKITKVLNMKPSEILSLIEEAAGTKMFEDRREKAERTMSKKETKLQENRTLLTEEIEPKLEKLRNEKRMFLEFQSTQTDLEKTERIVVSYEYYNIKHKHTSIRETLENGETRMKMLNEFVKKTSEEIDSLNEDVEEIKLQKEKELHKEGTISKLENKENGLLNEISRLKTSLSIKVENLNDTTEKSKALESEIASSSAKLIEKKSAYANTEKDYKMVQEQLSKQRDLYKRKEELVSTLTTGISSTGAADGGYNAQLAKAKTELNEVSLAIKKSSMKMELLKKELLTIEPKLKEATKDNELNVKHVKQCQETCDKLRARLVEYGFDPSRIKDLKQREDKLKSHYYQTCKNSEYLKRRVTNLEFNYTKPYPNFEASFVHGVVGQLFQIDNDNIRYATALQTCAGGRLFNVVVQDSQTATQLLERGRLRKRVTIIPLDKIYTRPISSQVLDLAKKIAPGKVELAINLIRFDESITKAMEFIFGNSLICEDPETAKKITFHPKIRARSITLQGDVYDPEGTLSGGSRNTSESLLVDIQKYNQIQKQIETIQADLNHVTEELQTQYATSQKTKTIQSDLNLSLHKLDLAKRNLDANPSSQIIARNEEILRDIGECENEIKTKQMSLKKCQEEVSTIEKDMKEYDSDKGSKLNELKKELKLLAKELEEQESESERKYDLFQNLELETEQLSSELDSNKTLLHNHLKSIESLKLENSDLEGKIRGVEDDLVTVQTELNEEKKRLMDIDDELNELETLIKKKQDEKKSSELELQKLVHDLNKYKSNTNNMEKIIEDLRQKHEFLEDFDLVRNIVKQNEGIDLDTYRERSKQLNEKFQELRKKVNPNIMNMIENVEKKEAALKTMIKTIEKDKMKIQETISKLNEYKRETLVKTWEKVTLDFGNIFADLLPNSFAKLVPCEGKDVTQGLEVKVKLGNIWKESLIELSGGQRSLIALSLIMALLQFRPAPMYILDQVDAALDLSHTQNIGHLIKTRFKGSQFIVVSLKEGMFANANRVFRTRFQDGTSVVSIM |
